Laboratory results reported in the supplement of paper PMC10567573.
± gives the standard deviation.

Assay: protein stability index of a GFP-peptide fusion (GPS, HEK-293T) (PSI 1-6); higher = more stable
[1] = treatment: DMSO, c terminus: a fixed tail appended
[2] = treatment: MLN4924 1 uM, 8 h, c terminus: a fixed tail appended
[3] = treatment: DMSO, c terminus: native
[4] = treatment: MLN4924 1 uM, 8 h, c terminus: native
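Also: 24-mer peptide tiles fused after GFP, lentivirally expressed, FACS-sorted into six equal bins by GFP/DsRed ratio, decoded by Illumina sequencing, PSI is the read-weighted mean bin number.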

Sequence	protein stability index [1]	protein stability index [2]	protein stability index [3]	protein stability index [4]
QEELQIQAAVAAGDVHTVRKMLEQ [ASB7]	5 ± 0.39	4.73 ± 0.21	–	–
IMALVAAILLLVIIILIVMKYRT [VAMP4]	–	–	3.07 ± 0.33	3.16 ± 0.07
VLAIPRRLRVELECEEGELSFYDA [TRIM35]	2.96 ± 0.2	3.08 ± 0.23	–	–
ILAHLTGTEFMQDPDEEHLKKSSQ [PDLIM7]	3.9 ± 0.13	4.16 ± 0.25	–	–
VQTPPGGSEVVPVISPMYQLHKPL [IKZF1]	3.77 ± 0.4	3.53 ± 0.23	–	–
ESVVKSEDFSLPAYMDRRDHPLPE [COX4I1]	5.1 ± 0.17	4.82 ± 0.098	–	–
QNQSDSLLALAGAVQRLEGALWGL [SCARA5]	2.4 ± 0.35	2.33 ± 0.32	–	–
TSRWSSMEIMEAYSVARQFNLTPP [KCNAB2]	2.57 ± 0.22	2.84 ± 0.084	–	–
VKQYLSTTLGPKLASQALTPPPGP [TFE3]	2.92 ± 0.19	2.93 ± 0.3	–	–
PQPDPVFLEALSSRYLGDSGLDDF [SERTAD3]	4.19 ± 0.47	4.08 ± 0.14	–	–
VSGINGDIRAKKIASIADVCESMK [HNF4A]	3.52 ± 0.15	3.72 ± 0.31	–	–
KVGKLAATAVGGGFFLLQLANHTG [FUNDC2]	2.38 ± 0.59	2.46 ± 0.87	–	–
ESPSLTSTPVCSQKVVVTTPLHRD [MYBL2]	4.83 ± 0.2	4.5 ± 0.11	–	–
VFDCLKDGMRNKETLEGREKAFIA [MED27]	3.88 ± 0.28	3.91 ± 0.25	–	–
YLPQCSYFKCVQKDIQPYMRRMVA [CCND2]	2.11 ± 0.28	2.01 ± 0.33	–	–
SEGLVGALMHVMQKRSRAIHSSDE [WAS]	3.67 ± 0.3	3.79 ± 0.15	–	–
LLGFNLTFVFLASLLVLIEPVAAG [CLCN6]	3.45 ± 0.23	3.14 ± 0.36	–	–
YDWLFFSPDKDSIMNIEPAILVMH [INTS3]	2.61 ± 0.52	2.16 ± 0.21	–	–
PPETVQNWIELLSGETWNPLKLHY [GOLPH3]	2.17 ± 0.24	2.12 ± 0.21	–	–
GPEPKDKGSLPQPPITEVESQVFS [ZNF232]	5.51 ± 0.078	5.36 ± 0.23	–	–
RVERRFHFSQSLTVIHDFLFSLKE [FAF2]	2.17 ± 0.15	2.44 ± 0.23	–	–
IGMHREMQVNPISKRMGPMTVVRM [RHOBTB1]	2.39 ± 0.44	2.39 ± 0.32	–	–

Sequence	protein stability index [1]	protein stability index [2]	protein stability index [3]	protein stability index [4]
YQAGKPDALTKLEQGEPLWTLEDE [ZNF649]	4.57 ± 0.17	4.6 ± 0.18	–	–
KHLTARVLCLIVLPLALYTATFAV [POMT2]	3.38 ± 0.42	3.15 ± 0.58	–	–
LLVLCEDHRGRMVKHQCCPGCGYF [EHMT1]	2.36 ± 0.087	2.27 ± 0.36	–	–
LPILTWPVLQSRTGLVYDQNMMNH [HDAC6]	2.25 ± 0.23	2.3 ± 0.33	–	–
FRPVSETCTDRSGISTGHWSGEVK [FUT8]	3.79 ± 0.28	3.84 ± 0.26	–	–
LYVLKGGYKEFFMKCQSYCEPPSY [CDC25A]	2.62 ± 0.68	2.65 ± 0.27	–	–
ESEDCKLPSNPCATTNACEKPIGS [KRT33B]	5.48 ± 0.097	5.34 ± 0.18	–	–
GIFEESFIEERRQGLEQFINKIAG [SNX12]	2.98 ± 0.59	2.84 ± 0.32	–	–
KGHERTVQYLQHLGTENLHLIFSY [VPS39]	2.39 ± 0.46	2.59 ± 0.67	–	–
WRDSKGKDKEYAEIIRKQVSATKA [UBE2R2]	3.9 ± 0.34	4.07 ± 0.46	–	–
PVGEPVTNVRLQPAATWNLEEKRL [FCHO1]	4.52 ± 0.27	4.63 ± 0.24	–	–
LQLRYSLRILIGDPPHHDHHDEFC [BEX5]	2.74 ± 0.54	2.48 ± 0.45	–	–
AQEALREKAAALERQLKVMASDHR [LRRC45]	4.26 ± 0.27	4.29 ± 0.23	–	–
PPRGPLAKHRLVPPAQGRVSRRLS [TRIM9]	4.21 ± 0.27	4.16 ± 0.49	–	–
PVVSAVWGHCEVTMRYINGLDPEP [SPSB4]	2.28 ± 0.23	2.54 ± 0.53	–	–
TKNKSKHALRKKQLKRQKRDYIHS [FAM9B]	3.71 ± 0.1	3.76 ± 0.1	–	–
TVKTHLTSLKTKFPAEQYYRFHEH [TSN]	2.32 ± 0.25	2.44 ± 0.36	–	–
TQKLEEIKENAQDTMRQINKKGFW [TOR1AIP2]	3.61 ± 0.16	4.08 ± 0.36	–	–
QALAGASSGRELGRPKELQPKKLH [ZNF263]	5.01 ± 0.46	4.82 ± 0.14	–	–
VNDNAPEVLLASLANPVLESTPVG [PCDHGC5]	4.55 ± 0.18	4.51 ± 0.12	–	–
VYLHGDDHQDSDEFCRNTLCAPEV [FAF2]	4.13 ± 0.22	4.23 ± 0.15	–	–
PRTRGSWSQPQPLKAPCLNGDTT [RASAL3]	–	–	3.62 ± 0.36	3.5 ± 0.36

Sequence	protein stability index [1]	protein stability index [2]	protein stability index [3]	protein stability index [4]
IKSHSSLPPNNSYADFERFSKVLE [DAPK3]	2.81 ± 0.22	2.96 ± 0.39	–	–
LYPALKGVNTVFHCASPPPSSNNK [NSDHL]	3.47 ± 0.064	3.52 ± 0.16	–	–
LPQTPHLEEDLKEVLRSEAGIELI [MYBL2]	4.2 ± 0.44	4.37 ± 0.17	–	–
YVYKAASEGKVLTLAALLLNRSES [FEM1B]	2.78 ± 0.69	2.62 ± 0.56	–	–
RIRIDDEPANLDILDTAGQAEFTA [RIT1]	4.62 ± 0.23	4.77 ± 0.11	–	–
PPPPPKEGHQEGLVELPASFRELL [SCNN1D]	4.29 ± 0.12	4.29 ± 0.1	–	–
NDSGICMSPESYLGSPQHSPSTRG [ATF4]	4.53 ± 0.29	4.86 ± 0.15	–	–
REAVSQLRELCRLWLRPETHTKEQ [ZNF24]	2.8 ± 0.32	3.03 ± 0.41	–	–
GAAAPATPTPVAAALDACSGNDPF [SNAP91]	5.18 ± 0.34	5.15 ± 0.24	–	–
QDGLPPTWRDFRTLEAFHDTCRQ [MED27]	–	–	4.16 ± 0.27	4.21 ± 0.4
TGERPYECNECGKAFSRSSGLFNH [ZSCAN9]	2.48 ± 0.4	2.6 ± 0.37	–	–
LQEVLSSDENGGTYVSPPGNEEEE [DDIT3]	5.63 ± 0.27	5.42 ± 0.3	–	–
PTMPALFSDHTFRHYAYLRDSLSH [INTS4]	2.3 ± 0.14	2.31 ± 0.12	–	–
TPDQKYSMDNTPHTPTPFKNALEK [MYBL2]	5 ± 0.2	5.22 ± 0.2	–	–
ADQWKSSNKSLVEALGLEAEGAVP [RHOBTB1]	5.1 ± 0.17	4.83 ± 0.22	–	–
LNRALSNLSSRWKNWWVRGILTLA [CDS2]	3.17 ± 0.31	3.1 ± 0.49	–	–
KCVTMSSAVVQLYAADRNCMWSKK [WASL]	2.87 ± 0.18	2.88 ± 0.29	–	–
SLYILRGSARYDFSHEILRDEESF [ALKBH7]	2.63 ± 0.21	2.2 ± 0.6	–	–
ADSGADPKGEPGSKQSPPMASSPI [FBF1]	5.44 ± 0.26	5.51 ± 0.15	–	–
LGLVARQEDSGLRDHSVRVLISNH [AUP1]	3 ± 0.15	3.01 ± 0.36	–	–
HDDGYMICCDKCSVWQHIDCMGID [KMT2E]	2.67 ± 0.29	2.92 ± 0.42	–	–
